Results taken from publication PMC6457497, “The H3K27me3 demethylase REF6 promotes leaf senescence through directly activating major senescence regulatory and functional genes in Arabidopsis”.

T1: GST-REF6C (C2H2 ZnF domain) (Arabidopsis thaliana, UniProt Q9STM3 1239-1360)
T1 sequence: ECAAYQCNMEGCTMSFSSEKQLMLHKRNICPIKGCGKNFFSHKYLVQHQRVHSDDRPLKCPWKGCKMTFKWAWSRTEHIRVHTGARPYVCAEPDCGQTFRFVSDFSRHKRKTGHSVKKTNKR

B1: EIN2 WT probe (dsDNA)
DNA 1: AGGAACCATTCTCTGGATAAACCCTAGC
DNA 2: GCTAGGGTTTATCCAGAGAATGGTTCCT
B2: NYE2 WT probe (dsDNA)
DNA 1: CAAAAAGGGTCTCTGTATTTAGTTATTA
DNA 2: TAATAACTAAATACAGAGACCCTTTTTG
B3: NYE1 WT probe (dsDNA)
DNA 1: AAAGGAGTCTCTCTGTATTTAGTGGCGT
DNA 2: ACGCCACTAAATACAGAGAGACTCCTTT
B4: ORE1 WT probe (dsDNA)
DNA 1: TACTCGGATCCTCTGTTTTTACAAGACA
DNA 2: TGTCTTGTAAAAACAGAGGATCCGAGTA
B5: NAP WT probe (dsDNA)
DNA 1: TTTCTCCAAACTCTGTTTTCTCTGTAAA
DNA 2: TTTACAGAGAAAACAGAGTTTGGAGAAA

Assays:
[1] = target: T1, GST-REF6C (C2H2 ZnF domain); test: EMSA; Light Shift EMSA kit binding buffer (composition, salt, pH not stated), poly(dI-dC), 4 ug protein in 20 ul, room temperature 30 min; 5% polyacrylamide gel with; details: protein: recombinant; tags: N-terminal GST; label: biotin; blunt
[2] = target: T1, GST-REF6C (C2H2 ZnF domain); test: EMSA; competed by excess unlabeled probe; Light Shift EMSA kit binding buffer (composition, salt, pH not stated), poly(dI-dC), 4 ug protein in 20 ul, room temperature 30 min; 5% polyacrylamide gel with; details: protein: recombinant; tags: N-terminal GST; label: biotin; blunt

Binder | binding result [1] | binding result [2]
B1 | binds | –
B2 | binds | –
B3 | – | binds
B4 | binds | –
B5 | binds | –
